From patent US10654911

Target: recombinant FVIII (Prospec Bio) (UniProt P00451)
Assay: ELISA: vWF-Fc variant coated on the plate, recombinant FVIII at 0-4000 pM, detected with sheep anti-FVIII polyclonal antibody and HRP secondary antibody

UniProt P00451, sequence (P00451 other isoform, or with tags, fused parts or gaps limits assumed): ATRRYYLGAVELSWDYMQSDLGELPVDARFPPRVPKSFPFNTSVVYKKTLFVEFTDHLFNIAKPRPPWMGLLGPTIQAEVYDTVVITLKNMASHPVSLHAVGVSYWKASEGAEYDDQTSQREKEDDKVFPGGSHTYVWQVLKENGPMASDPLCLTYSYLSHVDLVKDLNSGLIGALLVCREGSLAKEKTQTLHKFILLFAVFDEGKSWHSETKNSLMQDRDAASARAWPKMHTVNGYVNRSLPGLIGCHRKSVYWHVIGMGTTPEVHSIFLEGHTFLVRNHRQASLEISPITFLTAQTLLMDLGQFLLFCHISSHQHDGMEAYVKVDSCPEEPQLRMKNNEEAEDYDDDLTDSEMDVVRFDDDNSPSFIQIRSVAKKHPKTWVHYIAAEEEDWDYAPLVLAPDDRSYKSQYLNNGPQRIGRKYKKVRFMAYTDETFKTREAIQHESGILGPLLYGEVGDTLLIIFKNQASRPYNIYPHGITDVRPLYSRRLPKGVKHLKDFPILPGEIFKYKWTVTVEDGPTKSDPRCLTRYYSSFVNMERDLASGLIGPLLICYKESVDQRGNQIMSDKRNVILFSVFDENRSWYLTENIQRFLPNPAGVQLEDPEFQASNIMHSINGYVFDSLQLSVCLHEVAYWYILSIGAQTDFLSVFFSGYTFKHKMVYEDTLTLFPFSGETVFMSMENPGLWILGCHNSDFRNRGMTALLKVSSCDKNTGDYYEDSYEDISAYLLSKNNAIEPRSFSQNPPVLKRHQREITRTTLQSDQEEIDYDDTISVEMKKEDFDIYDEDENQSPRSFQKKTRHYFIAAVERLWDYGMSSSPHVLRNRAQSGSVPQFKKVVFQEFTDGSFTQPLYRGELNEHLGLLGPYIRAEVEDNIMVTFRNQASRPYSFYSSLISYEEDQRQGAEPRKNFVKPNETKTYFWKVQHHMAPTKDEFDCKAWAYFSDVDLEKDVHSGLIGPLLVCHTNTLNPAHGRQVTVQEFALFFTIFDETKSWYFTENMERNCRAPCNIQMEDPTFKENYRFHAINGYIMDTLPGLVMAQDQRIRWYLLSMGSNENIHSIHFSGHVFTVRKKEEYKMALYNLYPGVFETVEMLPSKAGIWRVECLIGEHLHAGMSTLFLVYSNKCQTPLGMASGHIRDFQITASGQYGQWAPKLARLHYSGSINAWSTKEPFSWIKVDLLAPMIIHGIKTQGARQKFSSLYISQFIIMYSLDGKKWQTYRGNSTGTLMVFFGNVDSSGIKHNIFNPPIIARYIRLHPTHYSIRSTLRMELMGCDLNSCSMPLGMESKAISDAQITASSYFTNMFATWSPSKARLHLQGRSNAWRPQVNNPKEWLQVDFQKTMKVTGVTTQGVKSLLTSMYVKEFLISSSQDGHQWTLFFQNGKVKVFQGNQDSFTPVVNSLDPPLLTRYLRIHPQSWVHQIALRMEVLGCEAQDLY

Kd: 0.5 nM
Substance: Pro-D′D3-Fc (Fc fusion)
